Experimental data: patent publication US20260250410A1, “ANTIBODY AND USE THEREOF” (SICHUAN HUIYU PHARMACEUTICAL CO., LTD., priority 2022, published 2026)

B1: SB4: anti-CDCP1 antibody by single B cell technique; VH SEQ ID NO: 274, VL SEQ ID NO: 324 (antibody, V domains shown)
VH: QVQLQQSGAELVRPGTSVKISCKASGYTFTNYWLGWVKQRPGHGLEWIGDNYPGDNYRNFNEKFKGKATLTTDASSSTAYLQLSSLISEDSAVYFCTRSGGSRYYTMDYWGQGTSVTVSS
VL: DIVMTQAAFSNPVTLGTSASISCRSSRSLLHNNGITYLYWYLQKPGQSPQLLIYQMSNLASGVPDRFHSSGSGTDFTLSISRVEAEDVGVYYCAQNLDLPYTFGGGTKLEIK
modifications: SB4 heavy chain variable region; SB4 light chain variable region
B2: 10D2: anti-CDCP1 murine monoclonal antibody (hybridoma); VH SEQ ID NO: 260, VL SEQ ID NO: 310 (antibody, V domains shown)
VH: EVQLQQSGPELKKPGETVKISCKASGYTFTDYSMHWVKQAPGKGLKWMGWINTETGQPTYADDFKGRFAFSLETSASSAYLQINNLKNEDTATYFCTRTFYYDYVGDYWGQGTTVTVSS
VL: DIVMTQSHKFMSTSVGDRVSITCKASQDVSTAVAWYRQKPGQSPKLLIYWASTRHTGVPDRLTGSGSGTDFALTINSVQAEDLALYYCQQHSSTPYTFGGGTKLEIK
modifications: 10D2 heavy chain variable region; 10D2 light chain variable region
B3: G10F6: anti-CDCP1 murine monoclonal antibody (hybridoma); VH SEQ ID NO: 256, VL SEQ ID NO: 306 (antibody, V domains shown)
VH: EVKLVESGPGILQPSQTLSLTCSFSGFSLSTSGMGVSWVRQPSGKGLEWLAHIYWDDDKRYNPSLKGRLTISKDTPRNQVFLEITSVDTTDTATYYCARVPGNWDEDAMDYWGQGTTVTVSS
VL: DIQMTQSPLSLPVSLGDQASISCRSSQNIVHTNGNTYLEWYLQKVGQSPKLLIYKVSNRFSGVPDRFSGSGSGTDFTLKISRVEAEDLGVYYCFQGSHVPYTFGGGTKLEIK
modifications: G10F6 heavy chain variable region; G10F6 light chain variable region
B4: SB5: anti-CDCP1 antibody by single B cell technique; VH SEQ ID NO: 275, VL SEQ ID NO: 325 (antibody, V domains shown)
VH: QVQLRESGPGLVAPSQSLSITCTVSGFSLTDFGVNWVRQPPGKGLEWLGIIWANGRIEYNSALKSRLSISKDNSRSQVFLKLNSLQTDDTARYYCARDHDYDVEAMDYWGQGTSVTVSA
VL: QIVLTQSPAIKSASPGEKVTMTCSASSSVIYMHWYQQKSGSSPKRWIYDTSKLASGVPVRFSGSGSGTSYSLTISTMEAEDAATYYCQQWSSYPPTFGGGTKVEIK
modifications: SB5 heavy chain variable region; SB5 light chain variable region
B5: 3C11: anti-CDCP1 murine monoclonal antibody (hybridoma); VH SEQ ID NO: 240, VL SEQ ID NO: 291 (antibody, V domains shown)
VH: EVQLQQSGTVLARPGASVKMSCKASGYNFISYWLHWIKQRPGQGLEWIGGIYPGNTDTTYNQKFKGKAKVTAVTSATTAYMELSSLTNEDSAVYYCIRYDYDRGMDYWGQGTTVTVSS
VL: DIQMTQSPSSFSVSLGDRVTITCRASEDIYYRLAWYQQKPGNAPRLLISGATALETGVPSRFSGSGSGKDYTLSITSLQTEDVATYYCQHYWNIPWTFGGGTKLEIK
modifications: 3C11 heavy chain variable region; 3C11 light chain variable region
B6: 3B12H5: anti-CDCP1 murine monoclonal antibody (hybridoma); VH SEQ ID NO: 239, VL SEQ ID NO: 290 (antibody, V domains shown)
VH: EVQLQQSGTVLARPGASVKMSCKASGYSFTIYWVHWVKQRPGQGLEWIGAVYPGNDDTSYNQNFKGKAKLTAVTSATTAYMELSSLTIDDSAVYYCTRHTYDEVFDYWGQGTTVTVSS
VL: DIVMTQSPSSLSVSLGDRVTITCKASEDIYYRLAWYQQKPGNAPRLLISGGTNLEAGIPSRFSGSGSGKDYTLSITSLQTEDVAIYYCQHYWNTPWTFGGGTKLEIK
modifications: 3B12H9/3B12H5 heavy chain variable region; 3B12H5 light chain variable region
B7: SB6: anti-CDCP1 antibody by single B cell technique; VH SEQ ID NO: 276, VL SEQ ID NO: 326 (antibody, V domains shown)
VH: QGQMQQSGAELVKPGASVKLSCKTSGFTFNSSYITWLKQKPGQSLEWIAWIFAGTGGTYYNEKFTDKAQLTVDTTSSTAYMQFSSLTTEDSAIYYCARHGLGYDYWGQGTTLTVSS
VL: SIVMTQTPKFLLVSAGDRVTITCKASQSVNTDVAWYQQKSGQSPKLLIYSASNRYTGVPDRFTGSGYGTDFTFTISTVQAEDLAVYFCQQDHSSPPWTFGGGTKLEIK
modifications: SB6 heavy chain variable region; SB6 light chain variable region

Columns and labels:
Assay type in all cases: cell-based, human
MDA-MB-231 cells [1] = assay: Endocytosis capacity of single B cell antibodies; conditions: MDA-MB-231, 2 h at 37° C., antibody 1.5 μg/mL
Protocol: The endocytosis capacity of the antibody was detected for 0.5 to 2 hours. MDA-MB-231 cells were subjected to digestion with 5 mM EDTA, and plated at 2×10^4 cells/well after cell counting. After adding an Fc blocker (Human TruStain FcX™, Biolegend, 422302) and blocking at room temperature for 10 mins, a test antibody (1.5 μg/mL) was added, and the mixture was incubated at 4° C. for 30 mins, centrifuged, and washed twice with PBS+2% FBS, then the cells were divided into four equal portions (labeled as 0 h, 0.5 h, 1 h, 2 h), cells labeled as 0.5 h, 1 h, 2 h time points were added to 200 μL of cell culture medium, and cultured at 37° C. for 0.5 h, 1 h, 2 h, respectively. Cells at 0 h point were centrifuged, a secondary antibody (PE anti-human IgG Fc Antibody, Biolegend, 410708) was added, and the mixture was incubated at 4° C. for 30 mins, centrifuged, and washed twice with PBS+2% FBS, and detection was performed using a flow cytometer. After incubation of cells labeled as 0.5 h, 1 h, and 2 h points at 37° C. was completed, a secondary antibody was added (in the same steps as those at 0 h point), Geo-MFI of the signal under the same voltage was collected as detection signal at 0 h, and antibody internalization rate was calculated according to the following equation: Internalization (%)=(Geo-MFI (0 h)-Geo-MFI (2 h))/Geo-MFI (0 h)×100%.

PC3 cells = assay: Endocytosis capacity of murine monoclonal antibody (flow cytometry internalization); conditions: antibody 1.5 μg/mL; for Internalization PC3 (%) 0.5 h: PC3, 0.5 h at 37° C.; for Internalization PC3 (%) 1 h: PC3, 1 h at 37° C.; for Internalization PC3 (%) 2 h: PC3, 2 h at 37° C.
Method in brief: (§1)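 MDA-MB-231 and PC3 cells (EDTA-detached, Fc-blocked) bound with 1.5 μg/mL test antibody at 4° C for 30 min, washed, then held at 37° C for 0.5, 1 or 2 h. Surface antibody detected with PE anti-human IgG Fc by flow cytometry; internalization (%) = (Geo-MFI 0 h − Geo-MFI at time point)/Geo-MFI 0 h × 100%.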

MDA-MB-231 cells [2] = assay: as above; conditions: antibody 1.5 μg/mL; for Internalization MDA-MB-231 (%) 0.5 h: MDA-MB-231, 0.5 h at 37° C.; for Internalization MDA-MB-231 (%) 1 h: MDA-MB-231, 1 h at 37° C.; for Internalization MDA-MB-231 (%) 2 h: MDA-MB-231, 2 h at 37° C.
Method in brief: as §1

MDA-MB-231 cells [3] = assay: Transwell tumor cell migration experiment; conditions: MDA-MB-231, antibody 10 μg/ml
Protocol: In order to determine the effect of antibodies on tumor cell metastasis, the migration ability of tumor cells was examined in this study according to a transwell experiment. The specific cell migration experiment involved culturing and collecting MDA-MB-231 cells, washing them once with PBS, adjusting the density to 8×10^5 cells/mL, adding the antibody to be tested to the cells such that the working concentration thereof was 10 μg/ml, co-incubating for 30 mins, adding a cell suspension to the upper chamber of the transwell chamber, placing the transwell chamber in the incubator for 12-48 h, then removing the chamber (transwell chamber, to examine cell migration ability), immobilizing the cells, staining the cells with crystal violet for 15 mins, washing, air drying, mounting, and taking photos of 4-5 fields of view under a microscope, and counting the number or area of the stained cells using imageJ analysis software, the number or area was used as the basis for determining tumor cell migration.

PC-3 cells = assay: Effect of antibody on tumor cell proliferation (CellTiter-Glo); conditions: PC-3, 96 h
Protocol: (§2) 3000 cells (breast cancer MDA-MB-231, prostate cancer PC-3 cells)/well were plated onto 96-well plates overnight, an antibody at a final concentration of 500 nM to 0.00128 nM (100 nM to 0.000256 nM, 100, 20, 4, 0.8, 0.16, 0.032, 0.0064, 0.00128, 0.000256 nM, respectively) was added; after a 5-fold dilution across 9 concentration points and culturing in a CO2 incubator at 37° C. for 96 h, half of the medium (100 μL) was discarded, and 100 μL of CellTiter-Glo Luminescent Cell Viability assay reagent (Promega, cat #G7570) was added to detect signal values on a BMG microplate reader. The inhibition of antibody on tumor cell growth was calculated by graphpad fitting based on the signal value and antibody concentration.

MDA-MB-231 cells [4] = assay: as above; conditions: MDA-MB-231, 96 h
Protocol: as §2

Molecule	Internalization MDA-MB-231 (%) (MDA-MB-231 cells [1])	Internalization PC3 (%) 0.5 h (PC3 cells)	Internalization PC3 (%) 1 h (PC3 cells)	Internalization PC3 (%) 2 h (PC3 cells)	Internalization MDA-MB-231 (%) 0.5 h (MDA-MB-231 cells [2])	Internalization MDA-MB-231 (%) 1 h (MDA-MB-231 cells [2])	Internalization MDA-MB-231 (%) 2 h (MDA-MB-231 cells [2])	effect on tumor cell migration (transwell, FIG. 4c) (MDA-MB-231 cells [3])	effect on tumor cell growth (FIG. 4b) (PC-3 cells)	effect on tumor cell growth (FIG. 4a) (MDA-MB-231 cells [4])
B1	83.16%									
B2		21.48%	41.99%	64.19%	46.38%	57.85%	70.77%	better capability to inhibit tumor cell migration than SEQ135	did not exhibit an effect on tumor cell growth	did not exhibit an effect on tumor cell growth
B3		3.36%	20.68%	54.36%	34.49%	50.70%	67.02%	better capability to inhibit tumor cell migration than SEQ135	did not exhibit an effect on tumor cell growth	did not exhibit an effect on tumor cell growth
B4	15.63%									
B5		28.45%	39.70%	59.90%	28.50%	36.16%	52.23%	better capability to inhibit tumor cell migration than SEQ135	did not exhibit an effect on tumor cell growth	did not exhibit an effect on tumor cell growth
B6		16.54%	30.28%	50.50%	20.76%	29.93%	49.69%	better capability to inhibit tumor cell migration than SEQ135	did not exhibit an effect on tumor cell growth	did not exhibit an effect on tumor cell growth
B7	63.21%									
